From US20240301063A1 (SHANDONG NEW TIME PHARMACEUTICAL, published 2024)

Tests used:
[1] = molecular target: T1, human BCMA on BCMA positive cells (human, UniProt Q02223 1-184); test: cell-based or functional assay
T1 sequence (looked up): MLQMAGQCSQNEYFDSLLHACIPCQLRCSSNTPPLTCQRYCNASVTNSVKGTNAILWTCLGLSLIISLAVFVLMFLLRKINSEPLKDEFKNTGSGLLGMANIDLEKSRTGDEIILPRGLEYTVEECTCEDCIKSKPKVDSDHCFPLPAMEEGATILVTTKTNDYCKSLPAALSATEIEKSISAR

[2] = molecular target: T2, cynomolgus monkey CD3 on cynomolgus monkey T cells (cynomolgus monkey, UniProt Q95LI5 22-198; Q95LI8 22-171; Q95LI7 23-181); test: flow cytometry on cynomolgus monkey T cells
T2 construct: Native CD3 on T cells
T2 sequence (Q95LI5 22-198 limits assumed, chain 1 of 3): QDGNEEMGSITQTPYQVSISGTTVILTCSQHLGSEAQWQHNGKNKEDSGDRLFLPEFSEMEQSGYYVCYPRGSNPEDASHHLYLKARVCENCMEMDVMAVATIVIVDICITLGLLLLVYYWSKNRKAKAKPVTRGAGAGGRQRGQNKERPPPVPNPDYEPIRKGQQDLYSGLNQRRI
T2 sequence (Q95LI8 22-171 limits assumed, chain 2 of 3): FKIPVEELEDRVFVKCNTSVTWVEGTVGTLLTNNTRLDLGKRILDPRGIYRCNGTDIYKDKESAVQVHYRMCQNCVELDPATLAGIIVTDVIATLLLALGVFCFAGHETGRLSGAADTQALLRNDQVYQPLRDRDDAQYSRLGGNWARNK
T2 sequence (Q95LI7 23-181 limits assumed, chain 3 of 3): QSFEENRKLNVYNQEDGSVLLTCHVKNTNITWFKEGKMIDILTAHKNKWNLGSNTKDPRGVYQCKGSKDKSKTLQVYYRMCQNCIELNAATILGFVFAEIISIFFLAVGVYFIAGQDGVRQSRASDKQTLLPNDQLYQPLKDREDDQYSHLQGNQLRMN

B1: bispecific antibody AP163 (bispecific antibody)
chain: QVQLVQSGAEVKKPGSSVKVSCKASGGTFSNYWMHWVRQAPGQGLEWMGATYRGHSDTYYNQKFKGRVTITADKSTSTAYMELSSLRSEDTAVYYCARGAIYDGYDVLDNWGQGTLVTVSSGGGGSGGGGSGGGGSDIQMTQSPSSLSASVGDRVTITCSASQDISNYLNWYQQKPGKAPKLLIYYTSNLHSGVPSRFSGSGSGTDFTLTISSLQPEDFATYYCQQYRKLPWTFGQGTKLEIKGGGGGGSGGGGSGGGGSSSSSKAPPPSEVQLLESGGGLVQPGGSLKLSCAASGFTFNTYAMNWVRQAPGKGLEWVARIRSKYNNYATYYADSVKDRFTISRDDSKNTAYLQMNNLKTEDTAVYYCVRHGNFGNSYVSWFAYWGQGTLVTVSSGGGGSGGGGSGGGGSELVVTQEPSLTVSPGGTVTLTCRSSTGAVTTSNYANWVQQKPGQAPRGLIGGTNKRAPGTPARFSGSLLGGKAALTLSGVQPEDEAEYYCALWYSNLWVFGGGTKLTVLDKTHTCPPCPAPEAAGGPSVFLFPPKPKDQLMISRTPEVTCVVVDVSHEDPEVKFNWYVDGVEVHNAKTKPREEQYASTYRVVSVLTVLHQDWLNGKEYKCKVSNKALPASIEKTISKAKGQPREPQVYTLPPSRDELTKNQVSLTCLVKGFYPSDIAVEWESNGQPENNYKTTPPVLDSDGSFFLYSKLTVDKSRWQQGNVFSCSVLHEALHNHYTQKSLSLSPG
notes: human IgG1 Fc with L234A, L235A, T250Q, N297A, P331S, M428L and K447 deleted (EU); also called anti-BCMA×CD3 bispecific antibody
**Q.** B1 was tested. Which “EC50 of activation of NFAT-Jurkat reporter cells (luciferase) in the presence of H929 cells” value [1] did it give?
**A.** 3.16 ng/mL

**Q.** What about the “EC50 of cynomolgus monkey T cells killing NCI-H929 tumor cells mediated by AP163” value [1] of the same binder?
**A.** 0.278 pM

**Q.** What about the “EC50 of human T cells killing NCI-H929 tumor cells mediated by AP163” value [1] of the same binder?
**A.** 0.239 pM

**Q.** Does B1 bind [2]?
**A.** binds
